These binders were tested against T1, FcγRIa (human, UniProt P12314 16-292) (assay: SPR (Biacore), captured antibody, FcγRIa analyte; relative to HoCon Ab GpH7-B3/GpL16-k0 = 100).
T1 construct: extracellular domain; soluble extracellular domain with C-terminal His tag, expressed in FreeStyle293 cells; also called FcgRI; FcgRIa
T1 sequence (P12314 16-292): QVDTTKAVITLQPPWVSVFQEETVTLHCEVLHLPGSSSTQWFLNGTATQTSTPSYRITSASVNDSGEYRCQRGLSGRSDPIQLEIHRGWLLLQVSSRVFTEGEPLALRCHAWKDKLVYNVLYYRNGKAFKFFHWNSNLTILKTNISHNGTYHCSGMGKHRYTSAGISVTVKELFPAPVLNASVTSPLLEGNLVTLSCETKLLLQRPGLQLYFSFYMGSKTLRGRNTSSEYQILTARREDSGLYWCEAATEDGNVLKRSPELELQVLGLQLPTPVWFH

Ho/Con_1a | Binder
101 % of control | GpH7-B3 variant E269_06M/GpL16-k0 (antibody, human IgG1, kappa, homodimerized IgG1, mutation in both H chains; also called Ho Ab) heavy: not shown light: DIVMTQSPLSLPVTPGEPASISCQASESLVHSNRNTYLHWYLQKPGQSPQLLIYKVSNRFSGVPDRFSGSGSGTDFTLKISRVEAEDVGVYYCSQNTHVPPTFGQGTKVEIERTVAAPSVFIFPPSDEQLKSGTASVVCLLNNFYPREAKVQWKVDNALQSGNSQESVTEQDSKDSTYSLSSTLTLSKADYEKHKVYACEVTHQGLSSPVTKSFNRGEC
103 % of control | GpH7-B3 variant K326_14T/GpL16-k0 (antibody, human IgG1, kappa, homodimerized IgG1, mutation in both H chains; also called Ho Ab) heavy: not shown light: DIVMTQSPLSLPVTPGEPASISCQASESLVHSNRNTYLHWYLQKPGQSPQLLIYKVSNRFSGVPDRFSGSGSGTDFTLKISRVEAEDVGVYYCSQNTHVPPTFGQGTKVEIERTVAAPSVFIFPPSDEQLKSGTASVVCLLNNFYPREAKVQWKVDNALQSGNSQESVTEQDSKDSTYSLSSTLTLSKADYEKHKVYACEVTHQGLSSPVTKSFNRGEC
104 % of control | GpH7-B3 variant I336_06M/GpL16-k0 (antibody, human IgG1, kappa, homodimerized IgG1, mutation in both H chains; also called Ho Ab) heavy: not shown light: DIVMTQSPLSLPVTPGEPASISCQASESLVHSNRNTYLHWYLQKPGQSPQLLIYKVSNRFSGVPDRFSGSGSGTDFTLKISRVEAEDVGVYYCSQNTHVPPTFGQGTKVEIERTVAAPSVFIFPPSDEQLKSGTASVVCLLNNFYPREAKVQWKVDNALQSGNSQESVTEQDSKDSTYSLSSTLTLSKADYEKHKVYACEVTHQGLSSPVTKSFNRGEC
101 % of control | GpH7-B3 variant K326_16H/GpL16-k0 (antibody, human IgG1, kappa, homodimerized IgG1, mutation in both H chains; also called Ho Ab) heavy: not shown light: DIVMTQSPLSLPVTPGEPASISCQASESLVHSNRNTYLHWYLQKPGQSPQLLIYKVSNRFSGVPDRFSGSGSGTDFTLKISRVEAEDVGVYYCSQNTHVPPTFGQGTKVEIERTVAAPSVFIFPPSDEQLKSGTASVVCLLNNFYPREAKVQWKVDNALQSGNSQESVTEQDSKDSTYSLSSTLTLSKADYEKHKVYACEVTHQGLSSPVTKSFNRGEC
101 % of control | GpH7-B3 variant K326_15Y/GpL16-k0 (antibody, human IgG1, kappa, homodimerized IgG1, mutation in both H chains; also called Ho Ab) heavy: not shown light: DIVMTQSPLSLPVTPGEPASISCQASESLVHSNRNTYLHWYLQKPGQSPQLLIYKVSNRFSGVPDRFSGSGSGTDFTLKISRVEAEDVGVYYCSQNTHVPPTFGQGTKVEIERTVAAPSVFIFPPSDEQLKSGTASVVCLLNNFYPREAKVQWKVDNALQSGNSQESVTEQDSKDSTYSLSSTLTLSKADYEKHKVYACEVTHQGLSSPVTKSFNRGEC
100 % of control | GpH7-B3 variant P271_04F/GpL16-k0 (antibody, human IgG1, kappa, homodimerized IgG1, mutation in both H chains; also called Ho Ab) heavy: not shown light: DIVMTQSPLSLPVTPGEPASISCQASESLVHSNRNTYLHWYLQKPGQSPQLLIYKVSNRFSGVPDRFSGSGSGTDFTLKISRVEAEDVGVYYCSQNTHVPPTFGQGTKVEIERTVAAPSVFIFPPSDEQLKSGTASVVCLLNNFYPREAKVQWKVDNALQSGNSQESVTEQDSKDSTYSLSSTLTLSKADYEKHKVYACEVTHQGLSSPVTKSFNRGEC
107 % of control | GpH7-B3 variant K334_10E/GpL16-k0 (antibody, human IgG1, kappa, homodimerized IgG1, mutation in both H chains; also called Ho Ab) heavy: not shown light: DIVMTQSPLSLPVTPGEPASISCQASESLVHSNRNTYLHWYLQKPGQSPQLLIYKVSNRFSGVPDRFSGSGSGTDFTLKISRVEAEDVGVYYCSQNTHVPPTFGQGTKVEIERTVAAPSVFIFPPSDEQLKSGTASVVCLLNNFYPREAKVQWKVDNALQSGNSQESVTEQDSKDSTYSLSSTLTLSKADYEKHKVYACEVTHQGLSSPVTKSFNRGEC
104 % of control | GpH7-B3 variant G236_20W/GpL16-k0 (antibody, human IgG1, kappa, homodimerized IgG1, mutation in both H chains; also called Ho Ab) heavy: not shown light: DIVMTQSPLSLPVTPGEPASISCQASESLVHSNRNTYLHWYLQKPGQSPQLLIYKVSNRFSGVPDRFSGSGSGTDFTLKISRVEAEDVGVYYCSQNTHVPPTFGQGTKVEIERTVAAPSVFIFPPSDEQLKSGTASVVCLLNNFYPREAKVQWKVDNALQSGNSQESVTEQDSKDSTYSLSSTLTLSKADYEKHKVYACEVTHQGLSSPVTKSFNRGEC

Second part, the binder before the results:

Binder | Ho/Con_1a
GpH7-B3 variant P271_03V/GpL16-k0 (antibody, human IgG1, kappa, homodimerized IgG1, mutation in both H chains; also called Ho Ab) heavy: not shown light: DIVMTQSPLSLPVTPGEPASISCQASESLVHSNRNTYLHWYLQKPGQSPQLLIYKVSNRFSGVPDRFSGSGSGTDFTLKISRVEAEDVGVYYCSQNTHVPPTFGQGTKVEIERTVAAPSVFIFPPSDEQLKSGTASVVCLLNNFYPREAKVQWKVDNALQSGNSQESVTEQDSKDSTYSLSSTLTLSKADYEKHKVYACEVTHQGLSSPVTKSFNRGEC | 102 % of control
GpH7-B3 variant I336_04F/GpL16-k0 (antibody, human IgG1, kappa, homodimerized IgG1, mutation in both H chains; also called Ho Ab) heavy: not shown light: DIVMTQSPLSLPVTPGEPASISCQASESLVHSNRNTYLHWYLQKPGQSPQLLIYKVSNRFSGVPDRFSGSGSGTDFTLKISRVEAEDVGVYYCSQNTHVPPTFGQGTKVEIERTVAAPSVFIFPPSDEQLKSGTASVVCLLNNFYPREAKVQWKVDNALQSGNSQESVTEQDSKDSTYSLSSTLTLSKADYEKHKVYACEVTHQGLSSPVTKSFNRGEC | 104 % of control
GpH7-B3 variant E333_13S/GpL16-k0 (antibody, human IgG1, kappa, homodimerized IgG1, mutation in both H chains; also called Ho Ab) heavy: not shown light: DIVMTQSPLSLPVTPGEPASISCQASESLVHSNRNTYLHWYLQKPGQSPQLLIYKVSNRFSGVPDRFSGSGSGTDFTLKISRVEAEDVGVYYCSQNTHVPPTFGQGTKVEIERTVAAPSVFIFPPSDEQLKSGTASVVCLLNNFYPREAKVQWKVDNALQSGNSQESVTEQDSKDSTYSLSSTLTLSKADYEKHKVYACEVTHQGLSSPVTKSFNRGEC | 101 % of control
GpH7-B3 variant I336_02A/GpL16-k0 (antibody, human IgG1, kappa, homodimerized IgG1, mutation in both H chains; also called Ho Ab) heavy: not shown light: DIVMTQSPLSLPVTPGEPASISCQASESLVHSNRNTYLHWYLQKPGQSPQLLIYKVSNRFSGVPDRFSGSGSGTDFTLKISRVEAEDVGVYYCSQNTHVPPTFGQGTKVEIERTVAAPSVFIFPPSDEQLKSGTASVVCLLNNFYPREAKVQWKVDNALQSGNSQESVTEQDSKDSTYSLSSTLTLSKADYEKHKVYACEVTHQGLSSPVTKSFNRGEC | 103 % of control
GpH7-B3 variant P271_06M/GpL16-k0 (antibody, human IgG1, kappa, homodimerized IgG1, mutation in both H chains; also called Ho Ab) heavy: not shown light: DIVMTQSPLSLPVTPGEPASISCQASESLVHSNRNTYLHWYLQKPGQSPQLLIYKVSNRFSGVPDRFSGSGSGTDFTLKISRVEAEDVGVYYCSQNTHVPPTFGQGTKVEIERTVAAPSVFIFPPSDEQLKSGTASVVCLLNNFYPREAKVQWKVDNALQSGNSQESVTEQDSKDSTYSLSSTLTLSKADYEKHKVYACEVTHQGLSSPVTKSFNRGEC | 102 % of control
GpH7-B3 variant P271_11K/GpL16-k0 (antibody, human IgG1, kappa, homodimerized IgG1, mutation in both H chains; also called Ho Ab) heavy: not shown light: DIVMTQSPLSLPVTPGEPASISCQASESLVHSNRNTYLHWYLQKPGQSPQLLIYKVSNRFSGVPDRFSGSGSGTDFTLKISRVEAEDVGVYYCSQNTHVPPTFGQGTKVEIERTVAAPSVFIFPPSDEQLKSGTASVVCLLNNFYPREAKVQWKVDNALQSGNSQESVTEQDSKDSTYSLSSTLTLSKADYEKHKVYACEVTHQGLSSPVTKSFNRGEC | 101 % of control
GpH7-B3 variant I336_03V/GpL16-k0 (antibody, human IgG1, kappa, homodimerized IgG1, mutation in both H chains; also called Ho Ab) heavy: not shown light: DIVMTQSPLSLPVTPGEPASISCQASESLVHSNRNTYLHWYLQKPGQSPQLLIYKVSNRFSGVPDRFSGSGSGTDFTLKISRVEAEDVGVYYCSQNTHVPPTFGQGTKVEIERTVAAPSVFIFPPSDEQLKSGTASVVCLLNNFYPREAKVQWKVDNALQSGNSQESVTEQDSKDSTYSLSSTLTLSKADYEKHKVYACEVTHQGLSSPVTKSFNRGEC | 105 % of control
GpH7-B3 variant P271_07I/GpL16-k0 (antibody, human IgG1, kappa, homodimerized IgG1, mutation in both H chains; also called Ho Ab) heavy: not shown light: DIVMTQSPLSLPVTPGEPASISCQASESLVHSNRNTYLHWYLQKPGQSPQLLIYKVSNRFSGVPDRFSGSGSGTDFTLKISRVEAEDVGVYYCSQNTHVPPTFGQGTKVEIERTVAAPSVFIFPPSDEQLKSGTASVVCLLNNFYPREAKVQWKVDNALQSGNSQESVTEQDSKDSTYSLSSTLTLSKADYEKHKVYACEVTHQGLSSPVTKSFNRGEC | 102 % of control
GpH7-B3 variant I336_10E/GpL16-k0 (antibody, human IgG1, kappa, homodimerized IgG1, mutation in both H chains; also called Ho Ab) heavy: not shown light: DIVMTQSPLSLPVTPGEPASISCQASESLVHSNRNTYLHWYLQKPGQSPQLLIYKVSNRFSGVPDRFSGSGSGTDFTLKISRVEAEDVGVYYCSQNTHVPPTFGQGTKVEIERTVAAPSVFIFPPSDEQLKSGTASVVCLLNNFYPREAKVQWKVDNALQSGNSQESVTEQDSKDSTYSLSSTLTLSKADYEKHKVYACEVTHQGLSSPVTKSFNRGEC | 107 % of control
GpH7-B3 variant I336_01G/GpL16-k0 (antibody, human IgG1, kappa, homodimerized IgG1, mutation in both H chains; also called Ho Ab) heavy: not shown light: DIVMTQSPLSLPVTPGEPASISCQASESLVHSNRNTYLHWYLQKPGQSPQLLIYKVSNRFSGVPDRFSGSGSGTDFTLKISRVEAEDVGVYYCSQNTHVPPTFGQGTKVEIERTVAAPSVFIFPPSDEQLKSGTASVVCLLNNFYPREAKVQWKVDNALQSGNSQESVTEQDSKDSTYSLSSTLTLSKADYEKHKVYACEVTHQGLSSPVTKSFNRGEC | 104 % of control
GpH7-B3 variant E269_08L/GpL16-k0 (antibody, human IgG1, kappa, homodimerized IgG1, mutation in both H chains; also called Ho Ab) heavy: not shown light: DIVMTQSPLSLPVTPGEPASISCQASESLVHSNRNTYLHWYLQKPGQSPQLLIYKVSNRFSGVPDRFSGSGSGTDFTLKISRVEAEDVGVYYCSQNTHVPPTFGQGTKVEIERTVAAPSVFIFPPSDEQLKSGTASVVCLLNNFYPREAKVQWKVDNALQSGNSQESVTEQDSKDSTYSLSSTLTLSKADYEKHKVYACEVTHQGLSSPVTKSFNRGEC | 101 % of control
GpH7-B3 variant E333_01G/GpL16-k0 (antibody, human IgG1, kappa, homodimerized IgG1, mutation in both H chains; also called Ho Ab) heavy: not shown light: DIVMTQSPLSLPVTPGEPASISCQASESLVHSNRNTYLHWYLQKPGQSPQLLIYKVSNRFSGVPDRFSGSGSGTDFTLKISRVEAEDVGVYYCSQNTHVPPTFGQGTKVEIERTVAAPSVFIFPPSDEQLKSGTASVVCLLNNFYPREAKVQWKVDNALQSGNSQESVTEQDSKDSTYSLSSTLTLSKADYEKHKVYACEVTHQGLSSPVTKSFNRGEC | 100 % of control
GpH7-B3 variant I336_18N/GpL16-k0 (antibody, human IgG1, kappa, homodimerized IgG1, mutation in both H chains; also called Ho Ab) heavy: not shown light: DIVMTQSPLSLPVTPGEPASISCQASESLVHSNRNTYLHWYLQKPGQSPQLLIYKVSNRFSGVPDRFSGSGSGTDFTLKISRVEAEDVGVYYCSQNTHVPPTFGQGTKVEIERTVAAPSVFIFPPSDEQLKSGTASVVCLLNNFYPREAKVQWKVDNALQSGNSQESVTEQDSKDSTYSLSSTLTLSKADYEKHKVYACEVTHQGLSSPVTKSFNRGEC | 104 % of control
GpH7-B3 variant E269_15Y/GpL16-k0 (antibody, human IgG1, kappa, homodimerized IgG1, mutation in both H chains; also called Ho Ab) heavy: not shown light: DIVMTQSPLSLPVTPGEPASISCQASESLVHSNRNTYLHWYLQKPGQSPQLLIYKVSNRFSGVPDRFSGSGSGTDFTLKISRVEAEDVGVYYCSQNTHVPPTFGQGTKVEIERTVAAPSVFIFPPSDEQLKSGTASVVCLLNNFYPREAKVQWKVDNALQSGNSQESVTEQDSKDSTYSLSSTLTLSKADYEKHKVYACEVTHQGLSSPVTKSFNRGEC | 100 % of control

From US20150344570A1 (published 2015)
